According to paper PMC11176775:

Legend:
[1] = target: GST-tag DNA polymerase β, full-length (1–335 amino acids) (UniProt P06746); test: SPR; Biacore X-100, 25 °C; GST-tag polβ or APE1 immobilised on CM5 chip (EDC/NHS, 10 mM sodium acetate pH 4.0), his-tag LIG1 or LIGIIIα proteins as analytes; 10 mM Hepes pH 7.4, 150 mM NaCl, 3 mM EDTA, 0.005% P20; 1:1 (Langmuir) model; polβ truncated mutants (Fig. S2) tested likewise, orientation not given
[2] = target: Polβ N-terminal (1–92 amino acids) (UniProt P06746); test: as above
[3] = target: Apurinic/apyrimidinic-endonuclease 1 (UniProt P27695); test: as above
Apurinic/apyrimidinic-endonuclease 1, sequence (P27695 whole entry, the tested form may be a part): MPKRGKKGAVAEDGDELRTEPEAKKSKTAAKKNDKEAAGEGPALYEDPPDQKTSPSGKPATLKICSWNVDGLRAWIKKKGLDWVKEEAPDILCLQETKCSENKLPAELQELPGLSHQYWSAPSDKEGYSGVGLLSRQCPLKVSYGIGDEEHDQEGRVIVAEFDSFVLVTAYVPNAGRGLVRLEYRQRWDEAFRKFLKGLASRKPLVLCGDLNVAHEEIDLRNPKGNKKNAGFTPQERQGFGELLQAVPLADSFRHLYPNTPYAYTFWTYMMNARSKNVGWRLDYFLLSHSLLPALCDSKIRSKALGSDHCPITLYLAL

[4] = target: Polβ C-terminal (92–335 amino acids) (UniProt P06746); test: as above
[5] = target: GST-tag polβ full-length (DNA polymerase β, 1–335 amino acids) (UniProt P06746); test: SPR; GST-tag polβ or APE1 immobilised on CM5 chip (EDC/NHS), his-tag LIG1 or LIGIIIα passed as analyte; Biacore X-100, 25 °C; 10 mM Hepes pH 7.4, 150 mM NaCl, 3 mM EDTA, 0.005% surfactant P20; 1:1 (Langmuir) fit
[6] = target: GST-tag APE1 full-length (apurinic/apyrimidinic-endonuclease 1) (UniProt P27695); test: as above
GST-tag APE1 full-length (apurinic/apyrimidinic-endonuclease 1), sequence (P27695 whole entry, the tested form may be a part): as above

[7] = target: GST-tag polβ full-length (DNA polymerase β, 1–335 amino acids) (UniProt P06746); test: SPR; Supplementary Figures 2 and 3; partner immobilised on the CM5 chip not given; Biacore X-100, 25 °C; 10 mM Hepes pH 7.4, 150 mM NaCl, 3 mM EDTA, 0.005% surfactant P20; 1:1 (Langmuir) fit
[8] = target: Polβ C-terminal (92–335 amino acids), as used in SPR (UniProt P06746); test: as above
[9] = target: His-tag LIGIIIα full-length (DNA ligase IIIα, 1–922 amino acids); test: as above

X-ray repair crosscomplementing protein 1 (XRCC1), his-tag, sequence (P18887 whole entry): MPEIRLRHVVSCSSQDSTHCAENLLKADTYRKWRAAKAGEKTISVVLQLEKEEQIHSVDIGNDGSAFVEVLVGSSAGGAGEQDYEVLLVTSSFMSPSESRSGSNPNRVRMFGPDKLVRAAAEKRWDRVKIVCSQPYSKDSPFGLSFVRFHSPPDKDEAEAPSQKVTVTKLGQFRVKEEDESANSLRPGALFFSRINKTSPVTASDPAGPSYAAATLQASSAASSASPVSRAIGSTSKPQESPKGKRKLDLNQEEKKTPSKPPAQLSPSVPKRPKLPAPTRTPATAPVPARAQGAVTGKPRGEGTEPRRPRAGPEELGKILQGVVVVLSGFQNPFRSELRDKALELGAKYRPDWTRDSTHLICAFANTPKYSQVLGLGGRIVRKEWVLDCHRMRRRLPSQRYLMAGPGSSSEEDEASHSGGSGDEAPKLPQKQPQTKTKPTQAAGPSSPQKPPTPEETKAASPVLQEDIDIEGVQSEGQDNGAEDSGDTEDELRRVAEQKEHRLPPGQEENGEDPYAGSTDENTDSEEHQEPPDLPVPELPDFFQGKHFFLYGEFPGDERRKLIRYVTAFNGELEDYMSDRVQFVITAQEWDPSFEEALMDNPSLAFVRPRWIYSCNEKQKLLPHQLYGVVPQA
poly (ADP-ribose) polymerase 1 (PARP1), his-tag, sequence (P09874 whole entry): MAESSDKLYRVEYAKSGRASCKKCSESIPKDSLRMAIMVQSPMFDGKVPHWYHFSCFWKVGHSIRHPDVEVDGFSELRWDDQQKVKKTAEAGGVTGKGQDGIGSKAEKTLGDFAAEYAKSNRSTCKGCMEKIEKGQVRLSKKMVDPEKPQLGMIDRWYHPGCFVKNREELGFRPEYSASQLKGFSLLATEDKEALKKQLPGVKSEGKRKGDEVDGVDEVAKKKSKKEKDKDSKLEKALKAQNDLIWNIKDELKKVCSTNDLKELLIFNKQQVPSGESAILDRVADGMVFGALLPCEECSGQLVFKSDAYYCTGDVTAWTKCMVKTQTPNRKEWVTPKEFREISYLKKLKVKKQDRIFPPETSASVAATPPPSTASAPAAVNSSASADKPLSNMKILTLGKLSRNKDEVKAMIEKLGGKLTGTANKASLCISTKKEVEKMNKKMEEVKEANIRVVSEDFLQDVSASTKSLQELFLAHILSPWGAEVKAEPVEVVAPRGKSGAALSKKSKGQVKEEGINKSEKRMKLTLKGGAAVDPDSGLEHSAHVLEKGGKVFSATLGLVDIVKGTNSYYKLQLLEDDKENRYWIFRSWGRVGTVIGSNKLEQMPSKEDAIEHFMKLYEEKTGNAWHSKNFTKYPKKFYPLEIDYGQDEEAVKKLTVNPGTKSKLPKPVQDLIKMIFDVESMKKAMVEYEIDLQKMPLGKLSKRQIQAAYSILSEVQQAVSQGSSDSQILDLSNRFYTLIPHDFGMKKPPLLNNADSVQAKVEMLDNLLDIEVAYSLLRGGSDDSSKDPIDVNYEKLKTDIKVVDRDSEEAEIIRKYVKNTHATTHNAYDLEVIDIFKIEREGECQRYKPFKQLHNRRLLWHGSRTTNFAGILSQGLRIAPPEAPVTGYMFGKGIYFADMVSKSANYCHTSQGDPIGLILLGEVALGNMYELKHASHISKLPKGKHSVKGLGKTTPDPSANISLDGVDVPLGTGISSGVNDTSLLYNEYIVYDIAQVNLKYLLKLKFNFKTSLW

With “DNA ligase IIIα full-length (1–922 amino acids) (enzyme)” the Kd [1] was 0.007 µM, the Kd [2] was 0.032 µM and the Kd [3] was 0.0033 µM. For the same substance, the fold reduction of binding against the full-length proteins [4] was 500 fold.

“LIGIIIα△ZnF (170–922 amino acids), LIGIIIα lacking the zinc-finger domain (domain or fragment)” gave a Kd [5] of 0.027 µM and a Kd [6] of 0.0049 µM.

Substance “LIGIIIα▵ZnF (170–922 amino acids) (domain or fragment)” has a Kd [1] of 0.03 µM.

“LIGIIIα▵BRCT (1–755 amino acids) (domain or fragment)” was tested, and the Kd [1] was 0.52 µM and the fold difference in KD against LIGIIIα▵ZnF [3] was 1000 fold.

For “X-ray repair crosscomplementing protein 1 (XRCC1), his-tag (from UniProt P18887 1-633) (natural protein; other documents disagree on this pair)”, the Kd [7] was 0.01 µM.

“His-tag LIG1 full-length (DNA ligase 1, 1–919 amino acids) (from UniProt P18858 1-919) (enzyme)” gave a Kd [8] of 0.74 µM.

For “poly (ADP-ribose) polymerase 1 (PARP1), his-tag (from UniProt P09874 1-1014) (enzyme)”, the Kd [9] was 0.02 µM.

“LIGIIIα△BRCT (1–755 amino acids), LIGIIIα lacking the BRCT domain (domain or fragment)” gave a Kd [6] of 1.05 µM.

“His-tag LIGIIIα full-length (DNA ligase IIIα, 1–922 amino acids) (enzyme)” was tested, and the Kd [8] was 0.5 µM.
